Measured values from US20200079833A1 (AstraZeneca / MedImmune, published 2020).
Starred links: 1 amine or outer side, 2 acyl side, 3 side chain; linkers in the order of their positions; H or OH if unused. Non-standard residues stand in square brackets, D forms with d. Groups on a side chain read outwards from the residue. Primed or numbered codes have the meaning given here. No end group written: not given here. *: point of attachment. γGlu = O=C(O)[C@H](CCC(=O)[*:2])N[*:1]; Stearoyl = CCCCCCCCCCCCCCCCCC(=O)*; Palmitoyl = CCCCCCCCCCCCCCCC(=O)*; αMeF = C[C@](N)(Cc1ccccc1)C(=O)O; αMeK = C[C@](N)(CCCCN)C(=O)O; αMeS = C[C@](N)(CO)C(=O)O; PEG2′ = not defined here; Aib = CC(C)(N)C(=O)O; Ahx = NCCCCCC(=O)O

B1: SEQ ID NO 196 (peptide)
peptide: H[Aib]EGS[αMeF]TSDV[αMeS]S[αMeF]LEGEAA[αMeK]E[αMeF]IA[αMeF]VVK([Ahx-Ahx-Ahx-Stearoyl])GG-NH2
modifications: N-terminus assumed
SMILES: CCCCCCCCCCCCCCCCCC(=O)NCCCCCC(=O)NCCCCCC(=O)NCCCCCC(=O)NCCCC[C@H](NC(=O)[C@@H](NC(=O)[C@@H](NC(=O)[C@](C)(Cc1ccccc1)NC(=O)[C@H](C)NC(=O)[C@@H](NC(=O)[C@](C)(Cc1ccccc1)NC(=O)[C@H](CCC(=O)O)NC(=O)[C@](C)(CCCCN)NC(=O)[C@H](C)NC(=O)[C@H](C)NC(=O)[C@H](CCC(=O)O)NC(=O)CNC(=O)[C@H](CCC(=O)O)NC(=O)[C@H](CC(C)C)NC(=O)[C@](C)(Cc1ccccc1)NC(=O)[C@H](CO)NC(=O)[C@](C)(CO)NC(=O)[C@@H](NC(=O)[C@H](CC(=O)O)NC(=O)[C@H](CO)NC(=O)[C@@H](NC(=O)[C@](C)(Cc1ccccc1)NC(=O)[C@H](CO)NC(=O)CNC(=O)[C@H](CCC(=O)O)NC(=O)C(C)(C)NC(=O)[C@@H](N)Cc1c[nH]cn1)[C@@H](C)O)C(C)C)[C@@H](C)CC)C(C)C)C(C)C)C(=O)NCC(=O)NCC(N)=O
B2: SEQ ID NO 193 (peptide)
peptide: H[Aib]EGS[αMeF]TSDV[αMeS]S[αMeF]LEGEAA[αMeK]E[αMeF]IA[αMeF]VVK([γGlu-γGlu-γGlu-Stearoyl])GG-NH2
modifications: N-terminus assumed
SMILES: CCCCCCCCCCCCCCCCCC(=O)N[C@@H](CCC(=O)N[C@@H](CCC(=O)N[C@@H](CCC(=O)NCCCC[C@H](NC(=O)[C@@H](NC(=O)[C@@H](NC(=O)[C@](C)(Cc1ccccc1)NC(=O)[C@H](C)NC(=O)[C@@H](NC(=O)[C@](C)(Cc1ccccc1)NC(=O)[C@H](CCC(=O)O)NC(=O)[C@](C)(CCCCN)NC(=O)[C@H](C)NC(=O)[C@H](C)NC(=O)[C@H](CCC(=O)O)NC(=O)CNC(=O)[C@H](CCC(=O)O)NC(=O)[C@H](CC(C)C)NC(=O)[C@](C)(Cc1ccccc1)NC(=O)[C@H](CO)NC(=O)[C@](C)(CO)NC(=O)[C@@H](NC(=O)[C@H](CC(=O)O)NC(=O)[C@H](CO)NC(=O)[C@@H](NC(=O)[C@](C)(Cc1ccccc1)NC(=O)[C@H](CO)NC(=O)CNC(=O)[C@H](CCC(=O)O)NC(=O)C(C)(C)NC(=O)[C@@H](N)Cc1c[nH]cn1)[C@@H](C)O)C(C)C)[C@@H](C)CC)C(C)C)C(C)C)C(=O)NCC(=O)NCC(N)=O)C(=O)O)C(=O)O)C(=O)O
B3: SEQ ID NO 194 (peptide)
peptide: H[Aib]EGS[αMeF]TSDV[αMeS]S[αMeF]LEGEAA[αMeK]E[αMeF]IA[αMeF]VVK([Ahx-Stearoyl])GG-NH2
modifications: N-terminus assumed
SMILES: CCCCCCCCCCCCCCCCCC(=O)NCCCCCC(=O)NCCCC[C@H](NC(=O)[C@@H](NC(=O)[C@@H](NC(=O)[C@](C)(Cc1ccccc1)NC(=O)[C@H](C)NC(=O)[C@@H](NC(=O)[C@](C)(Cc1ccccc1)NC(=O)[C@H](CCC(=O)O)NC(=O)[C@](C)(CCCCN)NC(=O)[C@H](C)NC(=O)[C@H](C)NC(=O)[C@H](CCC(=O)O)NC(=O)CNC(=O)[C@H](CCC(=O)O)NC(=O)[C@H](CC(C)C)NC(=O)[C@](C)(Cc1ccccc1)NC(=O)[C@H](CO)NC(=O)[C@](C)(CO)NC(=O)[C@@H](NC(=O)[C@H](CC(=O)O)NC(=O)[C@H](CO)NC(=O)[C@@H](NC(=O)[C@](C)(Cc1ccccc1)NC(=O)[C@H](CO)NC(=O)CNC(=O)[C@H](CCC(=O)O)NC(=O)C(C)(C)NC(=O)[C@@H](N)Cc1c[nH]cn1)[C@@H](C)O)C(C)C)[C@@H](C)CC)C(C)C)C(C)C)C(=O)NCC(=O)NCC(N)=O
B4: SEQ ID NO 195 (peptide)
peptide: H[Aib]EGS[αMeF]TSDV[αMeS]S[αMeF]LEGEAA[αMeK]E[αMeF]IA[αMeF]VVK([Ahx-Ahx-Stearoyl])GG-NH2
modifications: N-terminus assumed
SMILES: CCCCCCCCCCCCCCCCCC(=O)NCCCCCC(=O)NCCCCCC(=O)NCCCC[C@H](NC(=O)[C@@H](NC(=O)[C@@H](NC(=O)[C@](C)(Cc1ccccc1)NC(=O)[C@H](C)NC(=O)[C@@H](NC(=O)[C@](C)(Cc1ccccc1)NC(=O)[C@H](CCC(=O)O)NC(=O)[C@](C)(CCCCN)NC(=O)[C@H](C)NC(=O)[C@H](C)NC(=O)[C@H](CCC(=O)O)NC(=O)CNC(=O)[C@H](CCC(=O)O)NC(=O)[C@H](CC(C)C)NC(=O)[C@](C)(Cc1ccccc1)NC(=O)[C@H](CO)NC(=O)[C@](C)(CO)NC(=O)[C@@H](NC(=O)[C@H](CC(=O)O)NC(=O)[C@H](CO)NC(=O)[C@@H](NC(=O)[C@](C)(Cc1ccccc1)NC(=O)[C@H](CO)NC(=O)CNC(=O)[C@H](CCC(=O)O)NC(=O)C(C)(C)NC(=O)[C@@H](N)Cc1c[nH]cn1)[C@@H](C)O)C(C)C)[C@@H](C)CC)C(C)C)C(C)C)C(=O)NCC(=O)NCC(N)=O

Each binder was assayed against GLP-1 receptor (GLP-1R), primary cAMP assay (human, UniProt P43220 24-463) (assay: cell-based or functional assay).

| Binder | Primary assay EC50 (cAMP) Mean | Primary assay EC50 (cAMP), n1 | Primary assay EC50 (cAMP), n2 |
| --- | --- | --- | --- |
| H[Aib]EGTFTSDVSK([PEG2′-PEG2′-γGlu-Palmitoyl])YLEGEAAEEFIK([PEG2′-PEG2′-γGlu-Palmitoyl])FVVEGG-NH2 [SEQ ID NO: 244] | 12.3 nM | 7.77 nM | 16.9 nM |
| H[Aib]EGTFTSDVSK([PEG2′-PEG2′-γGlu-Palmitoyl])FLEGEAAEEFIK([PEG2′-PEG2′-γGlu-Palmitoyl])WVVEGG-NH2 [SEQ ID NO: 243] | 3.21 nM | 2.93 nM | 3.48 nM |
| H[Aib]EGTFTSDVSK([PEG2′-PEG2′-γGlu-Palmitoyl])YLEGEAAEEFIK([PEG2′-PEG2′-γGlu-Palmitoyl])WVVEGG-NH2 [SEQ ID NO: 242] | 3.85 nM | 3.58 nM | 4.11 nM |

What follows are binders tested against T1, glucose-dependent insulinotropic peptide (gastric inhibitory polypeptide) receptor (GIPR), primary cAMP assay (human, UniProt P48546 22-466) (assay: cell-based or functional assay).
T1 sequence (looked up): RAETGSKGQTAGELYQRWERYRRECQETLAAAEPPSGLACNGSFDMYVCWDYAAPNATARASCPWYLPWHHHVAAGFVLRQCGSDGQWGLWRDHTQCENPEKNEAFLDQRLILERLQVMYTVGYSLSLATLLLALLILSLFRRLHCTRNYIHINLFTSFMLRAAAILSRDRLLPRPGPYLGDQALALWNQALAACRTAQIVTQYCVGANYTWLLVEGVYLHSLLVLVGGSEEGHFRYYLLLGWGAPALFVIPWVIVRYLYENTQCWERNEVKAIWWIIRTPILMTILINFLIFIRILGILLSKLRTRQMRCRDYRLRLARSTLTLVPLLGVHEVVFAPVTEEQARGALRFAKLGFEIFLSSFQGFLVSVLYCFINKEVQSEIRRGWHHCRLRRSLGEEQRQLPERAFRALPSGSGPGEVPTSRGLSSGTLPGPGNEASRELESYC

| Binder | Primary assay EC50 (cAMP), n1 | Primary assay EC50 (cAMP), n2 |
| --- | --- | --- |
| H[Aib]EGTFTSDVSK([PEG2′-PEG2′-γGlu-Palmitoyl])YLEGEAAEEFIK([PEG2′-PEG2′-γGlu-Palmitoyl])FVVEGG-NH2 [SEQ ID NO: 244] | 21.6 nM | 21.6 nM |
| H[Aib]EGTFTSDVSK([PEG2′-PEG2′-γGlu-Palmitoyl])FLEGEAAEEFIK([PEG2′-PEG2′-γGlu-Palmitoyl])WVVEGG-NH2 [SEQ ID NO: 243] | 21.5 nM | 21.5 nM |
| H[Aib]EGTFTSDVSK([PEG2′-PEG2′-γGlu-Palmitoyl])YLEGEAAEEFIK([PEG2′-PEG2′-γGlu-Palmitoyl])WVVEGG-NH2 [SEQ ID NO: 242] | 21.4 nM | 21.4 nM |

What follows are binders tested against glucagon receptor (GCGR), primary cAMP assay (human, UniProt P47871 26-477) (assay: cell-based or functional assay).
glucagon receptor (GCGR), primary cAMP assay, sequence (P47871 26-477): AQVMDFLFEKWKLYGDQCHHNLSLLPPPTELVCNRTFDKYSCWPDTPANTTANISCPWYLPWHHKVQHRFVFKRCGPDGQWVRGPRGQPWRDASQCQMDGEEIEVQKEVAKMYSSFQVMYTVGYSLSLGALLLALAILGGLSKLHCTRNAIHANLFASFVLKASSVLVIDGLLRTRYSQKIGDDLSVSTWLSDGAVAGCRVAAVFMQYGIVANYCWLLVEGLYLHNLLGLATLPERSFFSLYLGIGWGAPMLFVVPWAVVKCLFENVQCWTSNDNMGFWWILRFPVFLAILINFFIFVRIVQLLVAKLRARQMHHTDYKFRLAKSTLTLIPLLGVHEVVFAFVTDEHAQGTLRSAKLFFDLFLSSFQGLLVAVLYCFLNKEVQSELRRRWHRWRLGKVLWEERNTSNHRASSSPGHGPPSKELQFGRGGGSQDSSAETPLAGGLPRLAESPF

| Binder | Primary assay EC50 (cAMP), n1 | Primary assay EC50 (cAMP), n2 |
| --- | --- | --- |
| H[Aib]EGTFTSDVSK([PEG2′-PEG2′-γGlu-Palmitoyl])YLEGEAAEEFIK([PEG2′-PEG2′-γGlu-Palmitoyl])FVVEGG-NH2 [SEQ ID NO: 244] | 21.6 nM | 21.6 nM |
| H[Aib]EGTFTSDVSK([PEG2′-PEG2′-γGlu-Palmitoyl])FLEGEAAEEFIK([PEG2′-PEG2′-γGlu-Palmitoyl])WVVEGG-NH2 [SEQ ID NO: 243] | 21.5 nM | 21.5 nM |
| H[Aib]EGTFTSDVSK([PEG2′-PEG2′-γGlu-Palmitoyl])YLEGEAAEEFIK([PEG2′-PEG2′-γGlu-Palmitoyl])WVVEGG-NH2 [SEQ ID NO: 242] | 21.4 nM | 21.4 nM |

What follows are binders tested against T2, glucose-dependent insulinotropic peptide (gastric inhibitory polypeptide) receptor (GIPR) (human, UniProt P48546 22-466) (assay: cell-based or functional assay).
T2 sequence (looked up): T1 sequence (looked up)

| Binder | Primary assay EC50 (cAMP), GIP-R, first run | Primary assay EC50 (cAMP), GIP-R, second run |
| --- | --- | --- |
| B1 | 26 nM | 26 nM |
| B2 | 26 nM | 26 nM |
| H[Aib]EGS[αMeF]TSDV[αMeS]S[αMeF]LEGEAA[αMeK]E[αMeF]IA[αMeF]VVK([PEG2′-PEG2′-Stearoyl])GG-NH2 [SEQ ID NO 198] | 26 nM | 26 nM |
| B3 | 28 nM | 28 nM |
| H[Aib]EGS[αMeF]TSDV[αMeS]S[αMeF]LEGEAA[αMeK]E[αMeF]IA[αMeF]VVK([PEG2′-Stearoyl])GG-NH2 [SEQ ID NO 197] | 27 nM | 27 nM |
| H[Aib]EGS[αMeF]TSDV[αMeS]S[αMeF]LEGEAA[αMeK]E[αMeF]IA[αMeF]VVK([PEG2′-PEG2′-PEG2′-Stearoyl])GG-NH2 [SEQ ID NO 199] | 25 nM | 25 nM |
| B4 | 27 nM | 27 nM |

What follows are binders tested against glucagon receptor (GCGR) (human, UniProt P47871 26-477) (assay: cell-based or functional assay).
glucagon receptor (GCGR), sequence (P47871 26-477): as above

| Binder | Primary assay EC50 (cAMP), Gluc-R, first run | Primary assay EC50 (cAMP), Gluc-R, second run |
| --- | --- | --- |
| B1 | 26 nM | 26 nM |
| B2 | 26 nM | 26 nM |
| H[Aib]EGS[αMeF]TSDV[αMeS]S[αMeF]LEGEAA[αMeK]E[αMeF]IA[αMeF]VVK([PEG2′-PEG2′-Stearoyl])GG-NH2 [SEQ ID NO 198] | 26 nM | 26 nM |
| B3 | 28 nM | 28 nM |
| H[Aib]EGS[αMeF]TSDV[αMeS]S[αMeF]LEGEAA[αMeK]E[αMeF]IA[αMeF]VVK([PEG2′-Stearoyl])GG-NH2 [SEQ ID NO 197] | 27 nM | 27 nM |
| H[Aib]EGS[αMeF]TSDV[αMeS]S[αMeF]LEGEAA[αMeK]E[αMeF]IA[αMeF]VVK([PEG2′-PEG2′-PEG2′-Stearoyl])GG-NH2 [SEQ ID NO 199] | 25 nM | 25 nM |
| B4 | 27 nM | 27 nM |

What follows are binders tested against GLP-1 receptor (GLP-1R) (human, UniProt P43220 24-463) (assay: cell-based or functional assay).

| Binder | Primary assay EC50 (cAMP), GLP-1R n1 | Primary assay EC50 (cAMP), GLP-1R n2 | Primary assay EC50 (cAMP), Mean pM GLP-1R |
| --- | --- | --- | --- |
| B1 | 0.19 nM | 0.063 nM | 125 pM |
| B2 | 0.33 nM | 0.095 nM | 213 pM |
| H[Aib]EGS[αMeF]TSDV[αMeS]S[αMeF]LEGEAA[αMeK]E[αMeF]IA[αMeF]VVK([PEG2′-PEG2′-Stearoyl])GG-NH2 [SEQ ID NO 198] | 0.041 nM | 0.015 nM | 27.9 pM |
| B3 | 0.24 nM | 0.068 nM | 154 pM |
| H[Aib]EGS[αMeF]TSDV[αMeS]S[αMeF]LEGEAA[αMeK]E[αMeF]IA[αMeF]VVK([PEG2′-Stearoyl])GG-NH2 [SEQ ID NO 197] | 0.12 nM | 0.034 nM | 79 pM |
| H[Aib]EGS[αMeF]TSDV[αMeS]S[αMeF]LEGEAA[αMeK]E[αMeF]IA[αMeF]VVK([PEG2′-PEG2′-PEG2′-Stearoyl])GG-NH2 [SEQ ID NO 199] | 0.029 nM | 0.0075 nM | 18.3 pM |
| B4 | 0.17 nM | 0.046 nM | 107 pM |
